The text below walks through data of patent EP4650366A1.

Experiment [1] has as its target Human GARP-TGFβ1 complex (human) (UniProt Q14392). The experiment is described as follows: SPR (Biacore T200), method of Example 4.
The target is the same in experiment [2]. The experiment is described as follows: SPR (Biacore T200), antibody on Protein A chip, antigen in flow. (In general: In SPR one partner is held on a chip, and binding of the other changes the refractive index at the surface.)

Sequence of Human GARP-TGFβ1 complex (human) (Q14392 other isoform, or with tags, fused parts or gaps limits assumed, chain 1 of 2): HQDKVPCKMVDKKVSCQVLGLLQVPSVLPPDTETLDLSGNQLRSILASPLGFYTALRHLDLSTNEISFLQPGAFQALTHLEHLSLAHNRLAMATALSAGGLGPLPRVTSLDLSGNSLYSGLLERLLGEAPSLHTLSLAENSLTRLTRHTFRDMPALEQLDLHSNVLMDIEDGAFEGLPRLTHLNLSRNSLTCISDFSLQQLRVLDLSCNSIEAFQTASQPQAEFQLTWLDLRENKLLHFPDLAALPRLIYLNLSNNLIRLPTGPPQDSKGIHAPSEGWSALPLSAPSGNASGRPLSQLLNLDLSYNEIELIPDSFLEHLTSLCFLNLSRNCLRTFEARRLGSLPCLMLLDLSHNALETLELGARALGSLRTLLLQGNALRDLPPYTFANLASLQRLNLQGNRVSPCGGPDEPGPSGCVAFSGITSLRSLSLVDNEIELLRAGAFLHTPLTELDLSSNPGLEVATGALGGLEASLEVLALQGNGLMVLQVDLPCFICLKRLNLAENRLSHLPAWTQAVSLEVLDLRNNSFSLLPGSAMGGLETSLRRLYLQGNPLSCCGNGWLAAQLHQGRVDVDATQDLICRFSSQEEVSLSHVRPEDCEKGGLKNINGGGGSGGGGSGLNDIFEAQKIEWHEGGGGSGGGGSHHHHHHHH
Sequence of Human GARP-TGFβ1 complex (human) (chain, as listed by the source limits assumed, chain 2 of 2): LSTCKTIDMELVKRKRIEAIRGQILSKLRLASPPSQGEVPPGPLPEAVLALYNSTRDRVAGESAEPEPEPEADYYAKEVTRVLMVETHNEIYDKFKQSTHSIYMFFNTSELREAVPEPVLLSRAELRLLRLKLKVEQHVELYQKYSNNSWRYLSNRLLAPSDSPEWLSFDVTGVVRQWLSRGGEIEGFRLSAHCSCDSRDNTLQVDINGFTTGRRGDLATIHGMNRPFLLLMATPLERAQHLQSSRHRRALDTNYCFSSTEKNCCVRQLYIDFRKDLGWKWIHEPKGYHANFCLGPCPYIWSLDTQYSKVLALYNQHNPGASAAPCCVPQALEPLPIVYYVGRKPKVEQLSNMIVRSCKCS

One may read the Kd as the constant that tells how readily two partners part at equilibrium. High values mean a looser complex, low ones a tighter complex. The koff is a measure of how fast the partners let go of each other. A high value points to a short-lived complex. For orientation: kon means a measure of how fast the partners come together. Low readings indicate slow association, high ones fast association. For Abbv-151 (antibody), in experiment [1], the Kd worked out at 0.98 nM, the dissociation rate constant (koff) is 0.000151 s⁻¹ and the kon was found to be 154000 M⁻¹ s⁻¹. In experiment [2], this substance displayed a dissociation constant (Kd) of 4.39 nM, a koff of 0.00283 s⁻¹ and an on-rate (kon) of 645000 M⁻¹ s⁻¹.
